Assay [1] concerns the target T1, human desmoglein 3 (DSG3) (human, UniProt P32926 50-999).
T1 construct: Full-length DSG3 gene stably expressed on CHO DG44 cells (DSG3-DG44) for flow cytometry; also called DSG3-DG44 cells; DSG3-Ba/F3 cells
T1 sequence: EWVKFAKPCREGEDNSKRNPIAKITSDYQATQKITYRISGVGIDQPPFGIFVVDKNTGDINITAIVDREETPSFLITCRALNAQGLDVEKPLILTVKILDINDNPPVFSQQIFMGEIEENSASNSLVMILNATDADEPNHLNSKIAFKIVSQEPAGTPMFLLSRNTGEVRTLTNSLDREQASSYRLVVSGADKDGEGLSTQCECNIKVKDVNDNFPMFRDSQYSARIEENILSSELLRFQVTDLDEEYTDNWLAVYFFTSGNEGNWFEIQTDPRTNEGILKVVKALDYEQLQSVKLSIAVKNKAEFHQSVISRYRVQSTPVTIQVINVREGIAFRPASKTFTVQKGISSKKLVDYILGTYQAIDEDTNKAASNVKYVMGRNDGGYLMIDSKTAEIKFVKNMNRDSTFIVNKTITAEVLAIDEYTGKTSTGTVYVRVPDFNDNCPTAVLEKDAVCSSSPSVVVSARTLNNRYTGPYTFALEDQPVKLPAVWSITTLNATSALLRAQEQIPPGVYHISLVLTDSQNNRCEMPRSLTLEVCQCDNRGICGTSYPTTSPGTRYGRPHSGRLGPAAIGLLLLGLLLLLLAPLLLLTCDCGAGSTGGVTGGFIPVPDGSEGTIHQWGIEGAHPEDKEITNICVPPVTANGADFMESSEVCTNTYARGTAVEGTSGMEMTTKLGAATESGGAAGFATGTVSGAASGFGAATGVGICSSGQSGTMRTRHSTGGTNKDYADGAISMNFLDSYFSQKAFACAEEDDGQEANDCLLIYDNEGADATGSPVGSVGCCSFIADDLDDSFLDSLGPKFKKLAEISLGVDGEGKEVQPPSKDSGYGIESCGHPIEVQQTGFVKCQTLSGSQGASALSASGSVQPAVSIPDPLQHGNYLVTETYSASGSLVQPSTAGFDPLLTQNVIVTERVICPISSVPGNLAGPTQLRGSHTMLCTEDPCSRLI
Description: flow cytometry screening on DSG3-DG44 cells. As for the experimental part:
Binding of the DF366 antibody to DSG3-DG44 cells was detected by flow cytometry. 5×10⁴ cells of DSG3-DG44 was reacted with 3 μg/mL of DF366 antibody on ice for 30 minutes, and then washed. Then, this was reacted with an FITC-labeled anti-mouse IgG antibody (Beckman Coulter) as the secondary antibody on ice for 30 minutes, washed, and then subjected to flow cytometry. FACS Calibur (Becton Dickinson) was used as the flow cytometer. The DF366 antibody bound to DSG3-DG44 cells, but not to the parental DG44 cells. Therefore, the DF366 antibody was confirmed to bind specifically to DSG3.
In general terms: In flow cytometry, cells or beads pass a laser one at a time.

Assay [2] concerns the target T1, human desmoglein 3 (DSG3). Description: flow cytometry, 10 µg/mL antibody on DSG3-DG44 CHO cells. As for the experimental part: (§1) Binding of the DF366c antibody to DSG3-DG44 cells and DG44 cells was detected by flow cytometry. 3×10⁴ cells were reacted with 10 μg/mL of DF366c antibody on ice for one hour, and then washed. Then, this was reacted with an FITC-labeled anti-human IgG antibody (Beckman Coulter) as the secondary antibody on ice for one hour, washed, and then subjected to flow cytometry. FACS Calibur (Becton Dickinson) was used as the flow cytometer. DF366c antibody bound to DSG3-DG44 cells, but not to the parental DG44 cells. Therefore, the DF366c antibody was confirmed to bind specifically to DSG3.

Assay [3] deals with T1, human desmoglein 3 (DSG3). Description: flow cytometry, FITC anti-mouse IgG secondary antibody. As for the experimental part: as §1
The pMCD/G2a-DF366 and pMCN/k-DF366 plasmids were introduced into DG44 cells by electroporation. The CHO DF366m-DG44 cells, which stably express the mouse IgG2a chimeric DF366 antibody (DF366m) were established by selection in a nucleic acid (HT supplement)-free medium containing 500 μg/mL of Geneticin. Subsequently, the DF366m antibody was purified from the culture supernatant of DF366m-DG44 using a Hi Trap Protein G HP column. The solvent was substituted with PBS using a PD-10 column. The concentration of the DF366m antibody purified was quantified using a DC Protein Assay kit. The DF366m antibody was subjected to flow cytometric analysis to confirm that the antibody specifically binds to DSG3 in the same way as the DF366c antibody. […]

The results in this text go back to patent publication US20100035280A1 (Chugai, published 2010).

B1: DF366 antibody (antibody, V domains shown)
VH: EVQLQQSGPELVKPGASVKISCKASGYTFTDYNMDWVKQSHGESLEWIGYIYPNNGGSGYNQKFKSKATLTVDKSSSTAYMELHSLTSEDSAVYYCARRDSYYGFDMAWFAYWGQGTLVTVSA
VL: DIQMTQSPASLSASVGETVTITCRPSENIYNNLAWYQQKQGKSPQLLVYVATNLAEGVPSRFSGSGSGTRFSLKINSLQPEDFGKYYCQHSYGTPWTFGGGTKLEIK
notes: Mouse monoclonal antibody purified from hybridoma supernatant; also called anti-DSG3 antibody; anti-human desmoglein 3 antibody
Take B1: the binding result in assay [1] is “binds”.

B2: human IgG1 chimeric DF366 antibody (DF366c) (antibody)
heavy: not shown
light: DIQMTQSPASLSASVGETVTITCRPSENIYNNLAWYQQKQGKSPQLLVYVATNLAEGVPSRFSGSGSGTRFSLKINSLQPEDFGKYYCQHSYGTPWTFGGGTKLEIKRTVAAPSVFIFPPSDEQLKSGTASVVCLLNNFYPREAKVQWKVDNALQSGNSQESVTEQDSKDSTYSLSSTLTLSKADYEKHKVYACEVTHQGLSSPVTKSFNRGEC
notes: Mouse DF366 variable regions on human IgG1/kappa constant regions, made in CHO DG44 cells; The full-length entries may include a signal peptide; also called DF366c antibody
With B2, the binding result in assay [2] was “binds”.

B3: mouse IgG2a chimeric DF366 antibody (DF366m) (antibody)
heavy: EVQLQQSGPELVKPGASVKISCKASGYTFTDYNMDWVKQSHGESLEWIGYIYPNNGGSGYNQKFKSKATLTVDKSSSTAYMELHSLTSEDSAVYYCARRDSYYGFDMAWFAYWGQGTLVTVSAAKTTAPSVYPLAPVCGDTTGSSVTLGCLVKGYFPEPVTLTWNSGSLSSGVHTFPAVLQSDLYTLSSSVTVTSSTWPSQSITCNVAHPASSTKVDKKIEPRGPTIKPCPPCKCPAPNLLGGPSVFIFPPKIKDVLMISLSPIVTCVVVDVSEDDPDVQISWFVNNVEVHTAQTQTHREDYNSTLRVVSALPIQHQDWMSGKEFKCKVNNKDLPAPIERTISKPKGSVRAPQVYVLPPPEEEMTKKQVTLTCMVTDFMPEDIYVEWTNNGKTELNYKNTEPVLDSDGSYFMYSKLRVEKKNWVERNSYSCSVVHEGLHNHHTTKSFSRTPGK
light: DIQMTQSPASLSASVGETVTITCRPSENIYNNLAWYQQKQGKSPQLLVYVATNLAEGVPSRFSGSGSGTRFSLKINSLQPEDFGKYYCQHSYGTPWTFGGGTKLEIKRADAAPTVSIFPPSSEQLTSGGASVVCFLNNFYPKDINVKWKIDGSERQNGVLNSWTDQDSKDSTYSMSSTLTLTKDEYERHNSYTCEATHKTSTSPIVKSFNRNEC
notes: DF366 variable regions on mouse IgG2a/kappa constant regions, made in CHO DG44 cells; The full-length entries may include a signal peptide; also called DF366m antibody
Turning to B3, the binding result in assay [3] is “binds”.
